Experimental data published in PMC9116609 (Science Advances, 2022).

B2: dehydrodolichyl diphosphate synthase (DHDDS), residues 1 to 333 (enzyme)
chain: MSWIKEGELSLWERFCANIIKAGPMPKHIAFIMDGNRRYAKKCQVERQEGHSQGFNKLAETLRWCLNLGILEVTVYAFSIENFKRSKSEVDGLMDLARQKFSRLMEEKEKLQKHGVCIRVLGDLHLLPLDLQELIAQAVQATKNYNKCFLNVCFAYTSRHEISNAVREMAWGVEQGLLDPSDISESLLDKCLYTNRSPHPDILIRTSGEVRLSDFLLWQTSHSCLVFQPVLWPEYTFWNLFEAILQFQMNHSVLQKARDMYAEERKRQQLERDQATVTEQLLREGLQASGDAQLRRTRLHKLSARREERVQGFLQALELKRADWLARLGTASA

Key:
[1] = target: T1, shcis-PT (soluble human cis-prenyltransferase complex, DHDDS-NgBR) (Homo sapiens, UniProt Q86SQ9); experiment: displacement of MANT-O-GPP followed by FRET; type: binding; settings: competition with 10 μM MANT-O-GPP; pH 7.5, 0.5 mM MgCl2, 1 μM enzyme; S1 site
T1 sequence (Q86SQ9 1-333): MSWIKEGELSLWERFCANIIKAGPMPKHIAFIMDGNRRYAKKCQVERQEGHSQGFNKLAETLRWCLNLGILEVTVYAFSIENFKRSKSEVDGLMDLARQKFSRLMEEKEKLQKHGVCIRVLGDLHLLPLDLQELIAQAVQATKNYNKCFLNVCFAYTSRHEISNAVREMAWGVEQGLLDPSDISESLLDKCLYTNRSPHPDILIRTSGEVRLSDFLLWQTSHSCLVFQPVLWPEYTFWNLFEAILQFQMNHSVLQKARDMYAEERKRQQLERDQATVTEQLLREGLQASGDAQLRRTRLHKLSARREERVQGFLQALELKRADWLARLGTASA
T1 sequence (Q96E22 73-293 partner): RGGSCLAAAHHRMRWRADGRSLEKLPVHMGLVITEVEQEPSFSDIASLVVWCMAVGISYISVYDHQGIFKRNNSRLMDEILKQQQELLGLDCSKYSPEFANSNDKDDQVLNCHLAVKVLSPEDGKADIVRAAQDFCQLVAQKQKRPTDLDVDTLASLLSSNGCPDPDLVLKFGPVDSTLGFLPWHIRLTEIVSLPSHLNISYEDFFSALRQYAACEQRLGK

[2] = target: B2; experiment: crystal structure
crystal structure = target: the molecule itself; experiment: crystal structure

CC(C)=CCC/C(C)=C/CC/C(C)=C/CO[P@@](=O)(O)OP(=O)(O)O [FPP]
IC50 [1]: 10.5 ± 3 µM

B1: Nogo B-receptor (NgBR), pseudo cis-prenyltransferase domain, residues 73 to 293 lacking residues 167 to 175 (domain or fragment)
chain: RGGSCLAAAHHRMRWRADGRSLEKLPVHMGLVITEVEQEPSFSDIASLVVWCMAVGISYISVYDHQGIFKRNNSRLMDEILKQQQELLGLDCSKDKDDQVLNCHLAVKVLSPEDGKADIVRAAQDFCQLVAQKQKRPTDLDVDTLASLLSSNGCPDPDLVLKFGPVDSTLGFLPWHIRLTEIVSLPSHLNISYEDFFSALRQYAACEQRLGK
binding result [2]: binds

B2
binding result (crystal structure): binds
